Blank lines part the entries; values can stand above or below the molecule they belong to.
How the values were obtained:
Lb-PepA = target: T1, Lb-PepA (Lactobacillus delbrueckii, UniProt F0HXE4); experiment: p-nitroaniline release at […] nm, Michaelis-Menten nonlinear fit; type: biochemical; settings: substrate inhibition constant, apparent; 50 mM Na/K-phosphate pH 6.0, 60 °C, 0.625 mM CoCl2
T1 construct: full length (361 aa, 1086 bp gene), C-terminal His6-tag kept, pET20b(+), E. coli BL21(DE3), Ni-NTA purified
T1 sequence (F0HXE4 1-361): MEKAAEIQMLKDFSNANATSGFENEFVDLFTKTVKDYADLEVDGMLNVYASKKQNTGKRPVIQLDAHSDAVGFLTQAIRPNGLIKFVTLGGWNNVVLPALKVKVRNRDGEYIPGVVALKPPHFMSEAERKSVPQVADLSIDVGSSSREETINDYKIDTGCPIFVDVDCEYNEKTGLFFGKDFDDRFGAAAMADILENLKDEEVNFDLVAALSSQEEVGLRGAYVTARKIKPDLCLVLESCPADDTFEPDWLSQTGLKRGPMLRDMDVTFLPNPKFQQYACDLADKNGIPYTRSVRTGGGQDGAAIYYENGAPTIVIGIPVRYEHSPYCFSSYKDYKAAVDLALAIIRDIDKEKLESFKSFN

Lc-PepA [1] = target: T2, Lc-PepA (Lactococcus lactis, UniProt Q9CIH3); experiment: as above; type: biochemical; settings: substrate inhibition constant, apparent; 50 mM Na/K-phosphate pH 8.0, 65 °C, 0.3125 mM CoCl2
T2 construct: full length (355 aa, 1068 bp gene), C-terminal His6-tag kept, pET20b(+), E. coli BL21(DE3), Ni-NTA purified
T2 sequence (Q9CIH3 1-355): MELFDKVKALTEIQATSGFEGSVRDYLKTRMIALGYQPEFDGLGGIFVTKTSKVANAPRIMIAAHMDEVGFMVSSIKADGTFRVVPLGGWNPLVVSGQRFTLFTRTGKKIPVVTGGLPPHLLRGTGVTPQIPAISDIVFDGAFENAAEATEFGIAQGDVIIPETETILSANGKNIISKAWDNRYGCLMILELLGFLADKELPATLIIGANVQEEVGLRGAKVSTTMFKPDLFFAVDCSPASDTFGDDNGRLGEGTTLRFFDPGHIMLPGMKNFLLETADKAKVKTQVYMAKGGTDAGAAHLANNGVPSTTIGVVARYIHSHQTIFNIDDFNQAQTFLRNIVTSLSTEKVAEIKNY

Lc-PepA [2] = target: T2, Lc-PepA; experiment: as above; type: biochemical; settings: substrate inhibition constant, apparent; 50 mM Na/K-phosphate pH 8.0, 65 °C, 0.3125 mM CoCl2; remark: listed apart in the source
Lc-PepA [3] = target: T2, Lc-PepA; experiment: product inhibition, p-nitroaniline release at […] nm; type: biochemical
[4] = target: Glutamyl (aspartyl)-specific aminopeptidase A (PepA) from Lactobacillus delbrueckii ssp. lactis DSM 20072 (Lactobacillus delbrueckii ssp. lactis DSM 20072); experiment: SEC; Superdex 200 10/300 GL, 30 uL at 1 mg/mL, 0.75 mL/min, 10 mM Na/K-phosphate pH 6.0 with 150 mM NaCl; native mass against calibration proteins, divided by the monomer's mass
[5] = target: Glutamyl (aspartyl)-specific aminopeptidase A (PepA) from Lactococcus lactis ssp. lactis DSM 20481 (Lactococcus lactis ssp. lactis DSM 20481) (UniProt Q48677); experiment: SEC; Superdex 200 10/300 GL, 30 uL at 1 mg/mL, 0.75 mL/min, 10 mM Na/K-phosphate pH 8.0 with 150 mM NaCl; native mass against calibration proteins, divided by the monomer's mass
purified protein [6] = substrate: N[C@@H](CC(=O)O)C(=O)Nc1ccc([N+](=O)[O-])cc1; experiment: purified protein; type: biochemical, Lactobacillus delbrueckii; settings: apparent, 50 mM Na/K-phosphate pH 6.0, 60 °C, 0.625 mM CoCl2, about 5% DMSO, fit with substrate inhibition
purified protein [7] = substrate: N[C@@H](CCC(=O)O)C(=O)Nc1ccc([N+](=O)[O-])cc1; experiment: purified protein; type: biochemical, Lactobacillus delbrueckii; settings: apparent, 50 mM Na/K-phosphate pH 6.0, 60 °C, 0.625 mM CoCl2, about 5% DMSO, substrate tested only up to 7.3 mM (solubility)
purified protein [8] = substrate: N[C@@H](CC(=O)O)C(=O)Nc1ccc([N+](=O)[O-])cc1; experiment: purified protein; type: biochemical, Lactococcus lactis; settings: apparent, 50 mM Na/K-phosphate pH 8.0, 65 °C, 0.3125 mM CoCl2, about 5% DMSO, fit with substrate inhibition
purified protein [9] = substrate: N[C@@H](CCC(=O)O)C(=O)Nc1ccc([N+](=O)[O-])cc1; experiment: purified protein; type: biochemical, Lactococcus lactis; settings: apparent, 50 mM Na/K-phosphate pH 8.0, 65 °C, 0.3125 mM CoCl2, about 5% DMSO, fit with substrate inhibition

H-Asp-pNA / KIS [mM] (Lb-PepA): 6.66 mM
H-Asp-pNA / KIS [mM] (Lc-PepA [1]): 41.9 mM
Molecule: N[C@@H](CC(=O)O)C(=O)Nc1ccc([N+](=O)[O-])cc1 [H-Asp-pNA]

H-Glu-pNA / KIS [mM] (Lc-PepA [2]): 3.61 mM
Molecule: N[C@@H](CCC(=O)O)C(=O)Nc1ccc([N+](=O)[O-])cc1 [H-Glu-pNA]

activity at 10000 µM (Lc-PepA [3]): 78.2%
Molecule: N[C@@H](CC(=O)O)C(=O)O [L-Asp]

activity at 10000 µM (Lc-PepA [3]): 82.3%
Molecule: N[C@@H](CCC(=O)O)C(=O)O [L-Glu]

stoichiometry N [4]: 12
Molecule: Glutamyl (aspartyl)-specific aminopeptidase A (PepA) from Lactobacillus delbrueckii ssp. lactis DSM 20072 (enzyme)

stoichiometry N [5]: 12
Molecule: Glutamyl (aspartyl)-specific aminopeptidase A (PepA) from Lactococcus lactis ssp. lactis DSM 20481 (from UniProt Q48677 1-355) (enzyme)

B1: Lb-PepA (Lactobacillus delbrueckii subsp. lactis DSM 20072) (protein)
chain: T1 sequence (F0HXE4 1-361)
notes: full length (361 aa, 1086 bp gene), C-terminal His6-tag kept, pET20b(+), E. coli BL21(DE3), Ni-NTA purified
Km (purified protein [6]): 1210 µM
Km (purified protein [7]): 25200 µM

B2: Lc-PepA (Lactococcus lactis subsp. lactis Il1403) (protein)
chain: T2 sequence (Q9CIH3 1-355)
notes: full length (355 aa, 1068 bp gene), C-terminal His6-tag kept, pET20b(+), E. coli BL21(DE3), Ni-NTA purified
Km (purified protein [8]): 340 µM
Km (purified protein [9]): 190 µM

— publication PMC4803204, “A Novel Glutamyl (Aspartyl)-Specific Aminopeptidase A from Lactobacillus delbrueckii with Promising Properties for Application” (PLoS ONE, 2016)
